Literature values, collected in publication PMC4010523.

Biological target: complement C5 (Homo sapiens) (UniProt P01031)

For Eculizumab, the Kd is listed as 0.12 nM.
